Measured values: patent publication US20070286806A1, “Methods and Compositions for Modulating a Steroid Receptor” (Mount Sinai Hospital, priority 2004, published 2007)

Tests used:
[1] = molecular target: T1, PR (Homo sapiens, UniProt P06401); experiment: GST in vitro pulldown assay with 35S-labeled PSF and GST-PR fusion proteins; format: binding; conditions: 35S-labeled PSF
T1 construct: made in house; host or cells: E. coli BL21(DE3)pLysS (GST-PR); rabbit reticulocyte lysate (35S His-PSF)
T1 sequence (P06401 556-650): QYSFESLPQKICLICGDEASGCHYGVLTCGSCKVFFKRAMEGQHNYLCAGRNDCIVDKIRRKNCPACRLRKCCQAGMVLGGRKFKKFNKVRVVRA
Method: (§1) FIG. 3. Mapping PSF and PR interaction site. (A) GST or GST-PR fusion proteins bound to glutathione-sepharose beads were incubated with ^35S-labeled PSF and binding of PSF was assessed by autoradiography. (B) GST or GST-PSF fusion proteins bound to glutathione-sepharose beads were incubated with ^35S-labeled PRB and binding of PRB was assessed by autoradiography. Input represents 10% of the material used for each sample in A and B. (C) GST-PSF fusion proteins used in assay B were separated on SDS gel and stained with commassie blue.
(§2) For immunoprecipitation of the endogenous PR and PSF, T47D cells cultured in 150 mm dishes were lysed in 800 μl NETN buffer containing 150 mM NaCl plus protease inhibitor cocktail. Cell lysate were then incubated with 5 μg of PR or PSF, or control mouse IgG at 4° C. overnight, followed by the addition of 30 μl of protein A/G PLUS-agarose beads (Santa Cruz) for another two hours at 4° C. Resins were washed with NETN containing 250 mM NaCl and eluted with 1×Laemmli buffer. […] Gels were treated with Enhancer (NEN, Boston, US) dried and analyzed by autoradiography. • Cell culture and transient transfection: SHM cells and 293T cells were maintained in DMEM plus 5% FCS (Sigma) as described before (22). […] Luciferase activity was determined by using the luciferin reagent (Promega) according to manufacture's protocol. […]

[2] = system: PR; experiment: as above; format: binding; conditions: 35S-labeled PSF
Method: as §1, §2

B1: polypyrimidine tract binding protein-associated splicing factor (protein)
chain: MSRDRFRSRGGGGGGFHRRGGGGGRGGLHDFRSPPPGMGLNQNRGPMGPGPGQSGPKPPIPPPPPHQQQQQPPPQQPPPQQPPPHQPPPHPQPHQQQQPPPPPQDSSKPVVAQGPGPAPGVGSAPPASSSAPPATPPTSGAPPGSGPGPTPTPPPAVTSAPPGAPPPTPPSSGVPTTPPQAGGPPPPPAAVPGPGPGPKQGPGPGGPKGGKMPGGPKPGGGPGLSTPGGHPKPPHRGGGEPRGGRQHHPPYHQQHHQGPPPGGPGGRSEEKISDSEGFKANLSLLRRPGEKTYTQRCRLFVGNLPADITEDEFKRLFAKYGEPGEVFINKGKGFGFIKLESRALAEIAKAELDDTPMRGRQLRVRFATHAAALSVRNLSPYVSNELLEEAFSQFGPIERAVVIVDDRGRSTGKGIVEFASKPAARKAFERCSEGVFLLTTTPRPVIVEPLEQLDDEDGLPEKLAQKNPMYQKERETPPRFAQHGTFEYEYSQRWKSLDEMEKQQREQVEKNMKDAKDKLESEMEDAYHEHQANLLRQDLMRRQEELRRMEELHNQEMQKRKEMQLRQEEERRRREEEMMIRQREMEEQMRRQREESYSRMGYMDPRERDMRMGGGGAMNMGDPYGSGGQKFPPLGGGGGIGYEANPGVPPATMSGSMMGSDMRTERFGQGGAGPVGGQGPRGMGPGTPAGYGRGREEYEGPNKKPRF
notes: expressed from transfected His-PSF vector or in vitro translated
- binding to GST-PR fusion proteins containing the DBD domain [1]: bound strongly
- binding to other segments of PR [2]: did not bind
